Earlier results on one substance are cited in publication PMC8112298.

The series deals with protein Z (Homo sapiens) (UniProt P22891).
Sequence of UniProt P22891 (P22891 41-400): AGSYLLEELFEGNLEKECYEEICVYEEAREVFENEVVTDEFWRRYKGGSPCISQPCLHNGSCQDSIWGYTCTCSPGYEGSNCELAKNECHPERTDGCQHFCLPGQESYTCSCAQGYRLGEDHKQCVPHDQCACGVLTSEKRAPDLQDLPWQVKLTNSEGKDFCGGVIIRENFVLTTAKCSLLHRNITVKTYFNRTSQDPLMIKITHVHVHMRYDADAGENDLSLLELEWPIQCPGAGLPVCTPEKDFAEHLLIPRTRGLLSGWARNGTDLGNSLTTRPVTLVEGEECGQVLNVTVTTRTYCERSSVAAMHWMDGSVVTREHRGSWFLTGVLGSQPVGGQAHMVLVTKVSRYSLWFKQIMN

One may read the Kd as the constant that tells how readily two partners part at equilibrium. In the case of ZPI (from UniProt Q9UK55), the Kd was 10 nM.
